# Test results: paper PMC6783313
# Molecular target: ClpP1(S98A) from Listeria monocytogenes (Listeria monocytogenes)
# Assay: cryo-EM structure
substance,measurement,value
ClpP1(S98A) from Listeria monocytogenes (natural protein),stoichiometry N,7
